Results on eight molecules are retold here after patent US20180057581A1 (MorphoSys, published 2018).

For assay [1], the target named is T1, human M-CSF (human, UniProt P09603 33-255, limits assumed).
T1 construct: also called M-CSF (human); CSF-1
T1 sequence: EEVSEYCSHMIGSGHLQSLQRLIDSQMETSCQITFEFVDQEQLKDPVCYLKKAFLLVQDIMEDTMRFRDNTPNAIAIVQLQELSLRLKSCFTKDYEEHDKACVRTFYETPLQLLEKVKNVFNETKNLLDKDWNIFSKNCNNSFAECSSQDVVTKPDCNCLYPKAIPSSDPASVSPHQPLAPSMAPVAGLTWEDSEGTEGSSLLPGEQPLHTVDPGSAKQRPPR
Put plainly: soluble equilibrium titration (SET), Fab, monovalent. Here is the method: (§1) The monovalent affinity of the antibodies of the present disclosure was determined by soluble equilibrium titration (Haenel et al. (2005) Anal Biochem 339, 182-4).

Assay [2] addresses T2, Recombinant cynomolgus monkey sgM-CSF (cynomolgus (Macaca fascicularis), UniProt P09603 33-255 (human entry), limits assumed).
T2 construct: used also where only 'cynomolgus M-CSF' is printed (ELISA result, SET); also called cynomolgus sgM-CSF; cyno sgM-CSF
T2 chain: T1 sequence with V186M, E192D
The description is as above. Here is the method: as §1

Assay [3] deals with T1, human M-CSF. The assay can be described thus: ELISA. Here is the method: (§2) BSA was used as a negative control substrate.
(§3) After blocking of plates with 5% skim milk powder in PBS, Fab-containing E. coli lysates, IgG-containing cell culture supernatants or purified IgG or Fab proteins were added. Binding of Fabs or IgGs was detected by F(ab)₂ specific goat anti-human IgG conjugated to alkaline phosphatase (Dianova Cat# 109-055-097; diluted 1:5000) using Attophos fluorescence substrate (Roche, #11681982001). Fluorescence emission at 535 nm was recorded with excitation at 430 nm.
(In general: ELISA stands for enzyme-linked immunosorbent assay.)

Assay [4] deals with T2, Recombinant cynomolgus monkey sgM-CSF. Put plainly: ELISA. Here is the method:
as §2, §3

Assay [5] concerns the target T3, Recombinant human sgM-CSF (human, UniProt P09603 33-255).
T3 sequence: T1 sequence
The assay can be described thus: cell-based or functional assay.

Assay [6] deals with T2, Recombinant cynomolgus monkey sgM-CSF. The assay can be described thus: cell-based or functional assay.
For the next assay, the target named is GM-CSF (Homo sapiens (Human), UniProt P04141 18-144). Put plainly: not described (Table 12, criterion Binding).
Assay [7] concerns the target T3, Recombinant human sgM-CSF. Put plainly: Table 12 summary, criterion Binding, Human M-CSF; assay and antibody format not named there. As for the experimental part:
as §1

Assay [8] deals with T3, Recombinant human sgM-CSF. Put plainly: Receptor binding assay, inhibition of human M-CSF binding to M-CSF receptor (competitor CSF1-R-Fc); Table 12 summary.
Assay [9] has as its target T2, Recombinant cynomolgus monkey sgM-CSF. Put plainly: Receptor binding assay, inhibition of cynomolgus M-CSF binding to M-CSF receptor (competitor CSF1-R-Fc); Table 12 summary. Here is the method: Complexes were then transferred to 384 well MSD plates coated with 2 μg/ml of the corresponding receptor. Plates were then washed and incubated with the streptavidin/ECL conjugate for 2 h with shaking at room temperature. 35 μl MSD read buffer T with surfactant was then added per well and subsequently measured using MSD Sector Imager 6000.

Where a chain is given by its changes, count along the chain named. Bounds are passed on as bounds.

Chain of GM-CSF (P04141 18-144 limits assumed): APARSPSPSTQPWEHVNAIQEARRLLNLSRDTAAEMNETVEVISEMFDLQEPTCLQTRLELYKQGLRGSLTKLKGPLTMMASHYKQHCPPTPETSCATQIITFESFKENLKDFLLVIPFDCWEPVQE

B1: Romaine, Fab (Fab, V domains shown)
VH: EVQLVESGGGLVKPGGSLRLSCAASGFTFSIYAMSWVRQAPGKGLEWVGRIKSNADGGTTEYAAPVKGRFTISRDDSKNTLYLQMNSLKTEDTAVYYCARMRYYSDLYFDPWGQGTLVTVSS
VL: DIELTQPPSVSVSPGQTASITCSGDAIGSKYVHWYQQKPGQAPVLVISKDNKRPSGIPERFSGSNSGNTATLTISGTQAEDEADYYCQTATVSSYWWVFGGGTKLTVLG
For B1, the Kd in the assay with human M-CSF [1] amounted to 0.013 nM; in assay [2], 0.007 nM.

B2: 8.10.3F (format not stated) (antibody, V domains shown)
VH: EVQLVESGGGLVQPGGSLRLSCAASGFTFSSFSMTWVRQAPGKGLEWVSYISSRSSTISYADSVKGRFTISRDNAKNSLYLQMNSLRDEDTAVYYCARDPLLAGATFFDYWGQGTLVTVSS
VL: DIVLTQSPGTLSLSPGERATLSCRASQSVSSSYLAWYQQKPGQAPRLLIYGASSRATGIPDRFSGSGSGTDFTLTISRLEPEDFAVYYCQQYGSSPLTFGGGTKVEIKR
notes: Prior art antibody; also called 8.10.F3
With B2, the ELISA fluorescence units (with human M-CSF [3]; in assay [4]) was over 35000 units in each case. Moreover, in assay [5], the “Cell viability assay (IC50), Human M-CSF” value was 0.071 nM. The “Cell viability assay (IC50), Cynomolgus M-CSF” value in assay [6] is 0.085 nM. Besides, the binding result with GM-CSF is “no binding”. In [7], the Kd came out at 0.038 nM. For the same molecule, the IC50 in [8] came to 0.031 nM; in assay [9], 0.021 nM.

B3: HeRX1-10G1 (format not stated) (antibody, V domains shown)
VH: QVQLQESGPGLVKPSQTLSLTCTVSDYSITSDYAWNWIRQFPGKGLEWMGYISYSGSTSYNPSLKSRITISRDTSKNQFSLQLNSVTAADTAVYYCASFDYAHAMDYWGQGTTVTVSS
VL: DIVLTQSPAFLSVTPGEKVTFTCQASQSIGTSIHWYQQKTDQAPKLLIKYASESISGIPSRFSGSGSGTDFTLTISSVEAEDAADYYCQQINSWPTTFGGGTKLEIKR
notes: Prior art antibody
On to B3, for which the ELISA fluorescence units (with human M-CSF [3]; in [4]) was over 35000 units throughout. Moreover, the “Cell viability assay (IC50), Human M-CSF” value in assay [5] was found to be 0.004 nM. Besides, in [6], the “Cell viability assay (IC50), Cynomolgus M-CSF” value was 0.004 nM. Further, the binding result in the assay with GM-CSF is “no binding”. In addition, in assay [7], the Kd is over 1 nM. The values for the IC50 in assay [8] and in [9] were 0.027 nM and 0.028 nM, respectively.

B4: Camille, Fab (Fab, V domains shown)
VH: QVQLQQSGPGLVKPSQTLSLTCAISGESVSTSSAAWNWIRQSPSRGLEWLGRTYYRSKWKHEYAVSVKSRITINPDTSKNQFSLQLNSVTPEDTAVYYCARDRYYYSAFDYWGQGTLVTVSS
VL: QSALTQPASVSGSPGQSITISCTGTSSDVGGYNSVSWYQQHPGKAPKLLIYAVSNRPSGVSNRFSGSKSGNTASLTISGLQAEDEADYYCASYDERFTRVFGGGTKLTVLG
On to B4, for which the figures for the Kd (with human M-CSF [1]; in assay [2]) were 0.018 nM and 0.025 nM, respectively.

B5: Madeleine, Fab (Fab, V domains shown)
VH: B4 VH with E27D, T31S, S32N, H61K, V65Q
VL: B4 VL with L49M
In the case of B5, the Kd in the assay with human M-CSF [1] was 0.028 nM; in [2], 0.03 nM.

B6: Laurine, Fab (Fab, V domains shown)
VH: B4 VH with E27D, T31S, S32N, H61K, V65Q
VL: B4 VL with Q1D, S2I, L49M
As to B6, the Kd with human M-CSF [1] worked out at 0.096 nM; in assay [2], 0.15 nM.

B7: Maelle, Fab (Fab, V domains shown)
VH: B4 VH with H61K, V65Q
VL: B4 VL with L49I
Regarding B7, the Kd in the assay with human M-CSF [1] was 0.013 nM; in [2], 0.027 nM.

B8: Meriem, Fab (Fab, V domains shown)
VH: B4 VH with E27D, H61K, V65Q
VL: B4 VL with L49I
On to B8, for which the Kd was 0.011 nM with human M-CSF [1] and 0.013 nM in assay [2].

As usually defined, the Kd is the free concentration of one partner at which half of the binding sites on the other are occupied at equilibrium, for simple one-to-one binding. Broadly, the IC50 is the concentration that inhibits the measured activity by half.
